T1: SLM2 (T-STAR) STAR domain (UniProt O75525 1-183)
T1 sequence: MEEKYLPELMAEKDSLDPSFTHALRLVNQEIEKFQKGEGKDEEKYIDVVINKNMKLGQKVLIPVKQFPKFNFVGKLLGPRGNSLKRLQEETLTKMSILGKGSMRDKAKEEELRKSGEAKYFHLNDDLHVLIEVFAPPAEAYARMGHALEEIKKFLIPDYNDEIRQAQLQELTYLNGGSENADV


Assays:
Sam68 STAR domain = Sam68 STAR domain (UniProt Q07666 97-283); assay: fluorescence polarization; FP buffer, salt, pH and temperature not given in the material; SD from three independent experiments; settings: protein: recombinant; chain copies: 2; label: 5' fluorescein
Sam68 STAR domain, sequence (Q07666 97-283): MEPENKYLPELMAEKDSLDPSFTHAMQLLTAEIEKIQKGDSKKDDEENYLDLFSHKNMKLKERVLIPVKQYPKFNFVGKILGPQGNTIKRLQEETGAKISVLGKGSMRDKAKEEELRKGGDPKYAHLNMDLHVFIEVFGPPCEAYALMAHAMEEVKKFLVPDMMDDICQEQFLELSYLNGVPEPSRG

[1] = target: T1, SLM2 (T-STAR) STAR domain; assay: as above; settings: protein: recombinant; chain copies: 2; label: 5' fluorescein

| Binder | Kd (Sam68 STAR domain) | Kd [1] |
| --- | --- | --- |
| Nrxn2 WT (ssRNA) RNA: CCCAAUUAAUUAAUUAAUUAACUAACUAACUAACUUUAAAAACACGAUCUUAAA | 2.9 ± 0.3 µM | 5.9 ± 0.9 µM |
| Nrxn2 mutant 7 (ssRNA) RNA: CCCAAUUAAUUAAUUAAUUAACUAACCCACCCACCCUAAAAACACGAUCUUAAA | 3.4 ± 0.3 µM | 3.9 ± 0.4 µM |

Reference: PMC5397175, “Binding site density enables paralog-specific activity of SLM2 and Sam68 proteins in Neurexin2 AS4 splicing control”
